Target: T1, Gαo-GFP (C-terminally tagged) wild type (human, UniProt P09471 1-354)
T1 construct: Gαo (GNAO1); also called WT Gαo; source: N2a cells, transfected, in lysate; not shown: GFP, C-terminal, kept
Assay: co-IP; N2a cells cotransfected with His6-RGS19 and Gαo-GFP (C-terminally tagged) variants, treated with 1 μM ZPT for 3 hours before IP of Gαo with a nanobody against GFP; Western blot; fold against DMSO-treated cells
Conditions: partners not purified

T1 sequence (P09471 whole entry): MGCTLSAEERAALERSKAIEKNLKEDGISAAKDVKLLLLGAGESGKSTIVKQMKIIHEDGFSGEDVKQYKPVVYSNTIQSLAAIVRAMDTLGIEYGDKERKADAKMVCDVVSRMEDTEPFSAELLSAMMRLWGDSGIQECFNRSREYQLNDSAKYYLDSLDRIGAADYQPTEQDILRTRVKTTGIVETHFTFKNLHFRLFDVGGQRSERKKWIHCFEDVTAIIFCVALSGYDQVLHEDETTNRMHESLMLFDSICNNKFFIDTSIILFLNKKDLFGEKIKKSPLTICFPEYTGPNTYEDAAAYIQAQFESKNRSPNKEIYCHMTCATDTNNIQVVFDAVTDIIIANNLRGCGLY

fold increase of the interaction by ZPT over DMSO: ~2 fold
B1: His6-RGS19 (natural protein, UniProt P49795 1-217, looked up)
chain: MPTPHEAEKQITGPEEADRPPSMSSHDTASPAAPSRNPCCLCWCCCCSCSWNQERRRAWQASRESKLQPLPSCEVCATPSPEEVQSWAQSFDKLMHSPAGRSVFRAFLRTEYSEENMLFWLACEELKAEANQHVVDEKARLIYEDYVSILSPKEVSLDSRVREGINKKMQEPSAHTFDDAQLQIYTLMHRDSYPRFLSSPTYRALLLQGPSQSSSEA
notes: RGS19 (regulator of G protein signaling 19); plasmid previously described; source: N2a cells, transfected, in lysate
